Test results from patent US20250188153A1 (UNIVERSITY OF GEORGIA RESEARCH FOUNDATION, published 2025).

How the values were obtained:
Assay in all cases: cell-based or functional assay
[1] = biological target: T1, hMPV F protein of hMPV TN/93-32 (genotype B) (human metapneumovirus)
[2] = biological target: T2, hMPV F protein of hMPV CAN/97-83 (genotype A) (human metapneumovirus, UniProt Q6WB98 19-539)
[3] = biological target: T2, hMPV F protein of hMPV CAN/97-83 …; remark: listed apart in the source
[4] = biological target: T1, hMPV F protein of hMPV TN/93-32 …; remark: listed apart in the source

T2 sequence (Q6WB98 19-539): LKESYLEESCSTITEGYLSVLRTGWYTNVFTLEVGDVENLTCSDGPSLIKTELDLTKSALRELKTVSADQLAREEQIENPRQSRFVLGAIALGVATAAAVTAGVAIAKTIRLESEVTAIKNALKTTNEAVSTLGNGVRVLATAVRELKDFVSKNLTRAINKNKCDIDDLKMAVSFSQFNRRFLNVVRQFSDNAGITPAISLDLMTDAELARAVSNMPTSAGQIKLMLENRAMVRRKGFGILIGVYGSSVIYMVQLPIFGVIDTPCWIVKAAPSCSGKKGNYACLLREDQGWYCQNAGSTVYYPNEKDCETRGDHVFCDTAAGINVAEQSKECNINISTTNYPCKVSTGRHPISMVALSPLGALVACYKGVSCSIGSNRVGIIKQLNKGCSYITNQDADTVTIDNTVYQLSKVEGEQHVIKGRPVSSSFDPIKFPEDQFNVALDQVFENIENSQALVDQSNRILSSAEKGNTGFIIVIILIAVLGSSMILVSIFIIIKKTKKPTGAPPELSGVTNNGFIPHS

Binder | IC50, plaque-reduction neutralization of hMPV TN/93-32 [1] | IC50, plaque-reduction neutralization of hMPV CAN/97-83 [2] | fold lower neutralization IC50 than against hMPV TN/93-32 [3] | neutralizing activity, plaque-reduction assay [3] | neutralizing activity, plaque-reduction assay [4]
MPV485 (antibody, V domains shown) V domain 1: EVQLQEPGPGLVKPSETLSLTCTVSGGSISSTNSFWGWVRQPPGKGLEWIGSIYYSGTTYYNSSLKSRVTISVDTSKNQFSLRLSSVTAADTAVYYCARQGLTSSWYDGSGLDVWG V domain 2: SYELTQPPSVSVSPGQTASITCSGDKLGNKYACWYQQRPGQSPVLVIYQDTKRPSGIPERFSGSNSGNTATLTISGTQAMDEADYYCQAWDSNTVVFGGGTKLTVL | 2600 ng/mL | 91 ng/mL | ≥ 20 fold |  | 
MPV487 (antibody, V domains shown) VH: EVQLLESGGGLVQPGRSLRLSCTASGFTFDDYAMHWVRQLPGKGLEWVSGISWNSDNIGYADSVKGRFTISRDNGKNSLYLQMNSLRAEDTAFYYCAKDVRIDYDLLIGHIDYWGPGTLVTVSS VL: TQSPVTLSLSPGERATLSCRASQSFGGYCAWYQQKPGQSPRLLIYDASNRATGVPARFSGSGSGTDFTLTISSLEPEDSAVYFCQQRGNWPIFGQGTRLEI | 12 ng/mL | 3 ng/mL |  | < 20 ng/mL | 
MPV454 (antibody, V domains shown) VH: EVQLVESGGGLVKPGGSLRLSCSTSGFVFSSYAMHWVRQAPGKGLEHVSAISSTGDNTHYADSVKGRFTISRDNSRGRLYLQMTSVRPEDAALYYCVKDLYSGRFYYFLDDWGQGTRIIVSS VL: DIQVTQSPSSLSASVGDRVTISCRASQNISNYLNWFQQRPGKAPKLLIYVASTLQSGAPSRFSGSGSGTDFTLTITDLQPEDFATYYCQQSYNTPPITFGQGTRLEIK | 25 ng/mL | 2 ng/mL |  | < 20 ng/mL | 
MPV481 (antibody, V domains shown) VH: EVQLVQSGGGLVKPGGSLRLSCAASGLPFNNAWMNWVRQAPGKGLEWVGRIKSKIDGGTTEYAAPVKGRFTISRDDSENTLYLQMNSLRTEDTAVYYCTTEYYALLSGNYSDCWGQGTLVTVSS VL: DIVMTQSPFSLSLSPGERATLSCRASQSIKRAYLGWYQQKPGQAPRLLIYGASNRATGIPDRFSGSGSGTDFTLTISRLEPEDFAVYYCQQYGDSPGGSFGQGTKLEIR | 260 ng/mL | 96 ng/mL |  |  | 
MPV489 (antibody, V domains shown) VH: EVQLLESGGGLVQPGGSLRLSCAASKFTFNNYEMNWLRQAPGKGLEWVSSISSSGDTIHNADSVKGRFIISRDNAKNSLHLQMNGLRAEDTAVYYCARAGSGWAYDAFDIWGLGTMVTVSS VL: LSASVGDRVTITCRASQSISSFLNWYQQKPGKAPKLLMYAASSLPVGVPSRFSGSGSGPEYTLTISNLQPEDFATYYCQQGYSSPPTFGGGTRLEVK | 2300 ng/mL | 3600 ng/mL |  |  | 
MPV456 (antibody, V domains shown) VH: QVQLQESGPGVVKPSGTLSLTCGVSGGSISSSYWWSWVRQPPGKGLEWIGEIYHSGSTNYNPSLKRRVTISVDKSKNQFSLKVTSVTAADTAVYYCARGPIQYYDILTEERVGYCDYWGQGTLVTVSS VL: TLSASVGDRVTITCRASQSISSWLAWFQQKPGKAPKLLIYKTSSLESGVPSRFSGSGSGTEFTLTISSLQPDDFATYYCQEYNSYSRTFGQGTKVEIK | 810 ng/mL | 450 ng/mL |  |  | 
MPV478 (antibody, V domains shown) VH: EVQLVQSGAEVKKPGASVKVSCNASGYTFTGYYIHWVRQAPGQGLEWMGWINPRSGGTNYAQKFQGRVTLTRDTSITTAYMDVTRLRPDDTAVYYCATTREGIVLMPRGRGDDALDTWGQGTTVIVSS VL: DIVMTQSPVSLTVSLGERATINCKSSQSVLSTSNNENYLAWYQQKPGQPPNLLIYWASTRESGVPDRFSGSGSGTDFTLTISSLQAEDVAVYYCQQYFATPITFGPGTKVDVK | 68 ng/mL | 210 ng/mL |  |  | 
MPV482 (antibody, V domains shown) VH: EVQLVQSGGGVVQPGRSLRLSCAASGFTFSSFAMHWVRQAPGKGLEWVALISDDGNNKYHADSVKGRFTISRDSSKNTLYLQMNSLRGEDTAVYYCARDGSVVGAAAHCDHWGQGTLVTVSS VL: SYELTQPPSVSVSPGQTARITCSGDALPNQCAYWYQQKPGLAPVLLIYKDKERPSGIPERFSGSISGTTVTLTISGVQAEDEADYYCQSSDSSSTVVFGGGTKLTVL | 47 ng/mL | 14 ng/mL |  | < 20 ng/mL | 
MPV488 (antibody, V domains shown) VH: EVQLVQSGFEVKKPGASVKVSCKASGYNFNNYGISWVRQAPGQGLEWMGWISAYTGNTNEAQKFQGRVSMTTDTSTSTAYMEVRSLRSDDTAVYYCARDIGSSMFYSYFYGMDVWGQGTTVIVSS VL: SLSVSLGERATINCKSSESVLYNSNNENYLDWYQQKPGQPPKLLIYWASTRASGVPDRFSGSASGTDFTLTISSLQAEDVAVYYCQQYYSTPRTFGQGTKVEIK | 2400 ng/mL | 18 ng/mL | ≥ 20 fold | < 20 ng/mL | 
MPV464 (antibody, V domains shown) VH: QVQLQESGPGLVKPSQTLSLTCTVSGGSVRGGGDYWSWIRRPPGKGLEWIGHIYNSGTTFYNPSLKSRVTISIDTSKNQFSLKLRSVTAADTAVYYCGRVGSRATGLPDWIDPWGQGTLVTVSS VL: SYELTQPPSVSVSPGQTATITCSGTNLGAKYSCWYQQKPGQSPVLVIFQDNKRASGIPARFSASTSGDTATLTISGTQVMDEADYFCQAWDSRTAVFGGGTTLTVL | 400 ng/mL | 140 ng/mL |  |  | 
MPV486 (antibody, V domains shown) VH: EVQLVESGGHLVQSGGSLRLSCAASGFTFSNYILNWVRQAPGKGLEWISYITGGSSAIYYADSVKGRFTISRDDAKNSLYLQMNNLRAEDTAVYYCARSHGYDSSGYYYYFAMDVWGQGTTVTVSS VL: QSVLTQPPSASGTPGQRVTISCSGSNSNIESNTVNWYQQIPGTAPKLLIYSDNRRPSGVPDRFSGSKSGTSASLAISGLQSEDEADYYCAAWDDSLIGYVFGTGTKVTV | 62 ng/mL | 510 ng/mL |  |  | 
MPV491 (antibody, V domains shown) VH: QVQLQESGPGLVKSSQTLSLTCTVSGGSISSVTSHWTWIRQHPGKGLEWIGYIFSSGTTYYSPSLRSRLTMSVDTSKNQFSLQLSSVTAADTAMYYCARGIYCGDSCYKGTDYWGRGTLVTVSS VL: IRLMTQTPVTLPVTPGEPASISCRSSQSLLHSNGYNYLDWYLQKPGQSPQLLIYRGSTRASGVPDRFSGSGSGTEFTLKISRVEAEDVGVYYCMQGLQTPYTFGQGTKLESR | 1900 ng/mL | 5700 ng/mL |  |  | 
MPV86 (antibody, V domains shown) VH: QVQLVQSGAEVKKPGSSVKVSCKASGDTFNDVALSWVRQAPGQGLEWLGGIIPFFGTANYAQRFQDRVTITADASTSTAYLELGGLRSEDTAVYYCARGWSCRNITCFMMGYYFYIMDVWGQGTLVTVSS VL: LSLSPGERATLSCRASQSVGNFLAWYQQKPGQTPRLLIQDASNRATGIPARFSGTGSGTDFTLTISSLEPEDFAVYYCQQRSNWPPTFGPGTKVDIK | 1800 ng/mL | 57 ng/mL | ≥ 20 fold |  | 
MPV483 (antibody, V domains shown) VH: EVQLVQSGAELKKPGSSVKVSCKASGDTFSNYAISWVRQAPGQGLEWMGGIIPIYNTANYAQKFQGRVTLTADESTSTAYMELSSLRSEDTAVYYCARDVRNNWSVLRGARYYYYGMDVWGQGTTVTVSS VL: DIVMTQTPFSLSASVGDRVTVTCRASQDISNSLAWFQQKPGKAPKSLIYAASSLQSGVPTRFSGGGSGTDFTLTISSLQPEDFATFYCLQYDSFPPTFGGGTKVEI | 110 ng/mL | 32 ng/mL |  |  | 
MPV477 (antibody, V domains shown) VH: EVQLVQSGAEVKKPGASVEVSCKTSGYTFTDYYLHWVRQAPGQGLEWMGWINPRSGGTKYGQKFQGRVTMTRDTSISTAYMDLRGLRSDDTAVYYCARAPLLTVYAVAHRSGENRFDPWGQGTVTVSS VL: QPPSLSGAPGQTVTISCTGSGSNIGAGYDVNWYQCLPGTAPKLLMFDNSNRPSGVPDRFSGSRSGASASLAITGLQAEDEADYYCQSYDSGLSGWVFGGGTKLTVL | 2900 ng/mL | 54 ng/mL | ≥ 20 fold |  | 
MPV467 (antibody, V domains shown) VH: EVQLVESGGGVVRPGTSLRVSCAAFDFNFRDYGMHWVRQAPGKGLEWVAGIWYDGSNKDYADSVKGRFTISRDNSQNTLYLQMNSLRVEDTAVYYCARDPRTHREGALSHFDSWGQGTLVTVSS VL: PNELTQDPAVSVALGQTVRITCQGDSLRNYFAGWYQQKPGQAPLLVLYGENIRPSGIPDRFSGSSSGNTVSLTITGAQAEDEADYYCNSRDNSGNHWVFGGGTRLTVL | 0.6 ng/mL | 5 ng/mL |  | < 20 ng/mL | < 1 ng/mL
MPV414 (antibody, V domains shown) VH: QVQLVQSGPEVKKPGSSVMVSCKTSGGNFNNFAISWVRQAPGQGLEWMGGIVPIFGTANYAQKSQDRVTITADPSSSTAYLQLSSLTSDDTAIYYCARDLGRSSNYYYYSVFESWGQGTLVTVSS VL: DIVMTQSPATLSLSPGERATLSCRASQSVGDKLAWYQQKPGQAPRLLIYGASTRATDIPARFSGSGSGTEFTLTVSSLQPEDFAVYYCQQYENWPPITFGQGTRLEIK | 590 ng/mL | 44 ng/mL |  |  | 
